Numbered stars: 1 amine (or outer) side, 2 acyl side, 3 side chain; on linkers, the order of the positions; unused ones are H or OH. Bridge positions count the residues as written; N and C are the ends. Square brackets hold non-standard residues; d marks the D form. Primed or numbered codes have the meaning given here. Ends that are not written are not given here. * marks the point of attachment. Phe(2,3-F2) = (2S)-3-(2,3-difluorophenyl)-2-aminopropanoic acid, O=C([C@H](Cc1cccc(F)c1F)N[*:1])[*:2]; TTDS = 1,13-diamino-4,7,10-trioxatridecan-succinamic acid, O=C(CCC(=O)[*:2])NCCCOCCOCCOCCCN[*:1]; Tranexamic″ = tranexamic acid, NC[C@H]1CC[C@@H](C(=O)*)CC1; NH(CH2CH2O)5CH2CO = O=C(COCCOCCOCCOCCOCCN[*:1])[*:2]; NH(CH2CH2O)4CH2CO = O=C(COCCOCCOCCOCCN[*:1])[*:2]; Pro(4-spirocPr) = O=C(O)[C@@H]1CC2(CC2)CN1; Oic = O=C(O)[C@@H]1C[C@@H]2CCCC[C@@H]2N1; PEG8 = NCCOCCOCCOCCOCCOCCOCCOCCOCCC(=O)O; PEG7 = NCCOCCOCCOCCOCCOCCOCCOCCC(=O)O; PEG6 = NCCOCCOCCOCCOCCOCCOCCC(=O)O; tBuAla = CC(C)(C)C[C@H](N)C(=O)O; PEG5 = NCCOCCOCCOCCOCCOCCC(=O)O; PEG4 = NCCOCCOCCOCCOCCC(=O)O; Pen = CC(C)(S)[C@H](N)C(=O)O; Tranexamic = tranexamic acid; PEG3 = NCCOCCOCCOCCC(=O)O; Orn = NCCC[C@H](N)C(=O)O; Sar = CNCC(=O)O
T1: recombinant human MASP1 active protease (amino acids 297-699, C-terminal His Tag) (human, UniProt P48740 297-699)
T1 sequence: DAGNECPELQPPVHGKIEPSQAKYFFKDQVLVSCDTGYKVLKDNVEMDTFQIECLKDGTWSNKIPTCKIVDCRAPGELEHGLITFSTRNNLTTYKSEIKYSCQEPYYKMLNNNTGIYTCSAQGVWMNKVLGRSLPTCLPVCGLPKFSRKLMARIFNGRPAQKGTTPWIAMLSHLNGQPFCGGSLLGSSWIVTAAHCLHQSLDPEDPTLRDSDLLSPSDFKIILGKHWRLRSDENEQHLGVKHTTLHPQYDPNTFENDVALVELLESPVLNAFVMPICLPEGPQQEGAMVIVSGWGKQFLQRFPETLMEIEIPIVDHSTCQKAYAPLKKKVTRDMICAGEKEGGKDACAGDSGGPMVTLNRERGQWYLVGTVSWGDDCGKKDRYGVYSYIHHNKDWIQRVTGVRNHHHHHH


How the values were obtained:
[1] = target: recombinant human MASP2 active protease (amino acids 297-686, C-terminal His Tag) (human, UniProt O00187 297-686); experiment: cell-based or functional assay
Chain of recombinant human MASP2 active protease (amino acids 297-686, C-terminal His Tag) (O00187 other isoform, or with tags, fused parts or gaps limits assumed): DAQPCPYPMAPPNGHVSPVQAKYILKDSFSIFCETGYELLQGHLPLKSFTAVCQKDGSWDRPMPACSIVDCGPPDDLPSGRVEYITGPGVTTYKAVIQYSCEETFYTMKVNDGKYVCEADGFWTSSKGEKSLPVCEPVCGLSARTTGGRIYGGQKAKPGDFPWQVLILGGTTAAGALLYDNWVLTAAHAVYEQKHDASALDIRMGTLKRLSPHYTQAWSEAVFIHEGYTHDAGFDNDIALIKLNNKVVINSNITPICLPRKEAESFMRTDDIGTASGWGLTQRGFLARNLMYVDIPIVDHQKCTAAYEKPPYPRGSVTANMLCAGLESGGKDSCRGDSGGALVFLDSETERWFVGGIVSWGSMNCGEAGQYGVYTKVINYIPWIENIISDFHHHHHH

[2] = target: T1, recombinant human MASP1 active protease …; experiment: cell-based or functional assay

human MASP2 IC50 [1] [nM] | human MASP1 IC50 [2] [nM] | Binder
11 | 6.6 | {Tranexamic″}-ICSRS[tBuAla]PPI[Pen]IP-{NH(CH2CH2O)5CH2CO-NH2} (disulfide 2-10; SMILES CC[C@H](C)[C@@H]1NC(=O)[C@@H]2CCCN2C(=O)[C@@H]2CCCN2C(=O)[C@H](CC(C)(C)C)NC(=O)[C@H](CO)NC(=O)[C@H](CCCNC(=N)N)NC(=O)[C@H](CO)NC(=O)[C@@H](NC(=O)[C@@H](NC(=O)[C@H]2CC[C@@H](CN)CC2)[C@@H](C)CC)CSSC(C)(C)[C@@H](C(=O)N[C@H](C(=O)N2CCC[C@H]2C(=O)NCCOCCOCCOCCOCCOCC(N)=O)[C@@H](C)CC)NC1=O) [Example 424: (Tranexamic)-IC+SRS-((tBu)A)-PPI-(Pen)+IP-(PEG5-CH2CO2H (18 atoms))-NH2]
9.8 | 5 | {Tranexamic″}-ICSRS[tBuAla]PPI[Pen]IP-{PEG3-NH2} (disulfide 2-10; SMILES CC[C@H](C)[C@@H]1NC(=O)[C@@H]2CCCN2C(=O)[C@@H]2CCCN2C(=O)[C@H](CC(C)(C)C)NC(=O)[C@H](CO)NC(=O)[C@H](CCCNC(=N)N)NC(=O)[C@H](CO)NC(=O)[C@@H](NC(=O)[C@@H](NC(=O)[C@H]2CC[C@@H](CN)CC2)[C@@H](C)CC)CSSC(C)(C)[C@@H](C(=O)N[C@H](C(=O)N2CCC[C@H]2C(=O)NCCOCCOCCOCCC(N)=O)[C@@H](C)CC)NC1=O) [Example 421: (Tranexamic)-IC+SRS-((tBu)A)-PPI-(Pen)+IP-(PEG2(13 atoms))-NH2]
83 | 2.9 | [Sar]ICSRSLP[Oic]I[Pen]IP[5‑Azaspiro(2.4)heptane‑1‑carboxylic acid]-OH (disulfide 3-11) [Example 438: ((N-Me)G)-IC+SRSLP-(Oic)-I-(Pen)+IP-((5-Azaspiro[2.4]heptane-1-carboxylic acid)-OH]
15 | 3.2 | [Sar]ICSRS[tBuAla]P[Pro(4-spirocPr)]I[Pen]IP-NH2 (disulfide 3-11; N-terminus assumed; SMILES CC[C@H](C)[C@H](NC(=O)CNC)C(=O)N[C@H]1CSSC(C)(C)[C@@H](C(=O)N[C@H](C(=O)N2CCC[C@H]2C(N)=O)[C@@H](C)CC)NC(=O)[C@H]([C@@H](C)CC)NC(=O)[C@@H]2CC3(CC3)CN2C(=O)[C@@H]2CCCN2C(=O)[C@H](CC(C)(C)C)NC(=O)[C@H](CO)NC(=O)[C@H](CCCNC(=N)N)NC(=O)[C@H](CO)NC1=O)
12 | 5.7 | {Tranexamic″}-ICSRS[tBuAla]PPI[Pen]IP-{PEG4-NH2} (disulfide 2-10; SMILES CC[C@H](C)[C@@H]1NC(=O)[C@@H]2CCCN2C(=O)[C@@H]2CCCN2C(=O)[C@H](CC(C)(C)C)NC(=O)[C@H](CO)NC(=O)[C@H](CCCNC(=N)N)NC(=O)[C@H](CO)NC(=O)[C@@H](NC(=O)[C@@H](NC(=O)[C@H]2CC[C@@H](CN)CC2)[C@@H](C)CC)CSSC(C)(C)[C@@H](C(=O)N[C@H](C(=O)N2CCC[C@H]2C(=O)NCCOCCOCCOCCOCCC(N)=O)[C@@H](C)CC)NC1=O) [Example 423: (Tranexamic)-IC+SRS-((tBu)A)-PPI-(Pen)+IP-(PEG3(16 atoms))-NH2]
15 | 10 | {Tranexamic″}-ICSRS[tBuAla]PPI[Pen]IP-{PEG8-NH2} (disulfide 2-10; SMILES CC[C@H](C)[C@@H]1NC(=O)[C@@H]2CCCN2C(=O)[C@@H]2CCCN2C(=O)[C@H](CC(C)(C)C)NC(=O)[C@H](CO)NC(=O)[C@H](CCCNC(=N)N)NC(=O)[C@H](CO)NC(=O)[C@@H](NC(=O)[C@@H](NC(=O)[C@H]2CC[C@@H](CN)CC2)[C@@H](C)CC)CSSC(C)(C)[C@@H](C(=O)N[C@H](C(=O)N2CCC[C@H]2C(=O)NCCOCCOCCOCCOCCOCCOCCOCCOCCC(N)=O)[C@@H](C)CC)NC1=O) [Example 427: (Tranexamic)-IC+SRS-((tBu)A)-PPI-(Pen)+IP-(PEG8(28 atoms))-NH2]
13 | 7.7 | {Tranexamic″}-ICSRS[tBuAla]PPI[Pen]IP-{PEG6-NH2} (disulfide 2-10; SMILES CC[C@H](C)[C@@H]1NC(=O)[C@@H]2CCCN2C(=O)[C@@H]2CCCN2C(=O)[C@H](CC(C)(C)C)NC(=O)[C@H](CO)NC(=O)[C@H](CCCNC(=N)N)NC(=O)[C@H](CO)NC(=O)[C@@H](NC(=O)[C@@H](NC(=O)[C@H]2CC[C@@H](CN)CC2)[C@@H](C)CC)CSSC(C)(C)[C@@H](C(=O)N[C@H](C(=O)N2CCC[C@H]2C(=O)NCCOCCOCCOCCOCCOCCOCCC(N)=O)[C@@H](C)CC)NC1=O) [Example 425: (Tranexamic)-IC+SRS-((tBu)A)-PPI-(Pen)+IP-(PEG5(22 atoms))-NH2]
120 | 1.7 | [Sar]ICSRS[tBuAla]PPI[Pen]IPD[Sar][Sar][Sar]-NH2 (disulfide 3-11; N-terminus assumed; SMILES CC[C@H](C)[C@H](NC(=O)CNC)C(=O)N[C@H]1CSSC(C)(C)[C@@H](C(=O)N[C@H](C(=O)N2CCC[C@H]2C(=O)N[C@@H](CC(=O)O)C(=O)N(C)CC(=O)N(C)CC(=O)N(C)CC(N)=O)[C@@H](C)CC)NC(=O)[C@H]([C@@H](C)CC)NC(=O)[C@@H]2CCCN2C(=O)[C@@H]2CCCN2C(=O)[C@H](CC(C)(C)C)NC(=O)[C@H](CO)NC(=O)[C@H](CCCNC(=N)N)NC(=O)[C@H](CO)NC1=O) [Example 433: ((N-Me)G)-IC+SRS-((tBu)A)-PPI-(Pen)+IPD-((N-Me)G)-((N-Me)G)-((N-Me)G)-NH2]
44 | 2.3 | [Sar]ICSRSLP[Oic]I[Pen]IPP[(2S)‑3‑(Triazol-1-yl)‑2‑(amino)propanoic acid]-NH2 (disulfide 3-11)
17 | 9.2 | [Tranexamic]ICSRS[tBuAla]PPI[Pen]IP[PEG5]-NH2 (disulfide 3-11) [Example 435: (Tranexamic)-IC+SRS-((tBu)A)-PPI-(Pen)+IP-(PEG4(19 atoms))-NH2]
26 | 18 | [Sar]ICSRS[Phe(2,3-F2)]PPI[Pen]IP-NH2 (disulfide 3-11; N-terminus assumed; SMILES CC[C@H](C)[C@H](NC(=O)CNC)C(=O)N[C@H]1CSSC(C)(C)[C@@H](C(=O)N[C@H](C(=O)N2CCC[C@H]2C(N)=O)[C@@H](C)CC)NC(=O)[C@H]([C@@H](C)CC)NC(=O)[C@@H]2CCCN2C(=O)[C@@H]2CCCN2C(=O)[C@H](Cc2cccc(F)c2F)NC(=O)[C@H](CO)NC(=O)[C@H](CCCNC(=N)N)NC(=O)[C@H](CO)NC1=O) [Example 440: ((N-Me)G)-IC+SRS-((2S)-3-(2,3-difluorophenyl)-2-aminopropanoic acid)-PPI-(Pen)+IP-NH2]
91 | 1.4 | [Sar]ICSRS[tBuAla]PPI[Pen]IP[Orn][Orn][Orn]-NH2 (disulfide 3-11; N-terminus assumed; SMILES CC[C@H](C)[C@H](NC(=O)CNC)C(=O)N[C@H]1CSSC(C)(C)[C@@H](C(=O)N[C@H](C(=O)N2CCC[C@H]2C(=O)N[C@@H](CCCN)C(=O)N[C@@H](CCCN)C(=O)N[C@@H](CCCN)C(N)=O)[C@@H](C)CC)NC(=O)[C@H]([C@@H](C)CC)NC(=O)[C@@H]2CCCN2C(=O)[C@@H]2CCCN2C(=O)[C@H](CC(C)(C)C)NC(=O)[C@H](CO)NC(=O)[C@H](CCCNC(=N)N)NC(=O)[C@H](CO)NC1=O) [Example 430: ((N-Me)G)-IC+SRS-((tBu)A)-PPI-(Pen)+IP-(Orn)-(Orn)-(Orn)-NH2]
12 | 6.9 | [Tranexamic]ICSRS[tBuAla]PPI[Pen]IP[TTDS]-NH2 (disulfide 3-11) [Example 429: (Tranexamic)-IC+SRS-((tBu)A)-PPI-(Pen)+IP-(TTDS)-NH2]
15 | 9.1 | {Tranexamic″}-ICSRS[tBuAla]PPI[Pen]IP-{PEG7-NH2} (disulfide 2-10; SMILES CC[C@H](C)[C@@H]1NC(=O)[C@@H]2CCCN2C(=O)[C@@H]2CCCN2C(=O)[C@H](CC(C)(C)C)NC(=O)[C@H](CO)NC(=O)[C@H](CCCNC(=N)N)NC(=O)[C@H](CO)NC(=O)[C@@H](NC(=O)[C@@H](NC(=O)[C@H]2CC[C@@H](CN)CC2)[C@@H](C)CC)CSSC(C)(C)[C@@H](C(=O)N[C@H](C(=O)N2CCC[C@H]2C(=O)NCCOCCOCCOCCOCCOCCOCCOCCC(N)=O)[C@@H](C)CC)NC1=O) [Example 426: (Tranexamic)-IC+SRS-((tBu)A)-PPI-(Pen)+IP-(PEG7(25 atoms))-NH2]
12 | 8.1 | {Tranexamic″}-ICSRS[tBuAla]PPI[Pen]IP-{NH(CH2CH2O)4CH2CO-NH2} (disulfide 2-10; SMILES CC[C@H](C)[C@@H]1NC(=O)[C@@H]2CCCN2C(=O)[C@@H]2CCCN2C(=O)[C@H](CC(C)(C)C)NC(=O)[C@H](CO)NC(=O)[C@H](CCCNC(=N)N)NC(=O)[C@H](CO)NC(=O)[C@@H](NC(=O)[C@@H](NC(=O)[C@H]2CC[C@@H](CN)CC2)[C@@H](C)CC)CSSC(C)(C)[C@@H](C(=O)N[C@H](C(=O)N2CCC[C@H]2C(=O)NCCOCCOCCOCCOCC(N)=O)[C@@H](C)CC)NC1=O) [Example 422: (Tranexamic)-IC+SRS-((tBu)A)-PPI-(Pen)+IP-(PEG4-CH2CO2H (15 atoms))-NH2]
76 | 2.2 | [Sar]ICSRSLP[Oic]I[Pen]IP[(2S)‑3‑(Triazol-1-yl)‑2‑(amino)propanoic acid]-NH2 (disulfide 3-11) [Example 437: ((N-Me)G)-IC+SRSLP-(Oic)-I-(Pen)+IP-((2S)-3-(Triazol-1-yl)-2-(amino)propanoic acid)-NH2]

Source: patent US20210246166A1 (Bayer, published 2021)
